In the DeepSol protein solubility set:

Assay: soluble on expression in E. coli; label from the status in PepcDB or PDB records

Sequence	soluble on expression in E. coli
MTLHKERRIGRLSVLLLLNEAEESTQVEELERDGWKVCLGKVGSMDAHKVIAAIETASKKSGVIQSEGYRESHALYHATMEALHGVTRGEMLLGSLLRTVGLRFAVLRGNPYESEAEGDWIAVSLYGTIGAPIKGLEHETFGVGINHI	soluble
MTDSRTHLRLQIRQRRQSLSAFEQQTASQQLIHTFASLPEVTAAQRIALYLANDGELNTQPLIEWLWQQGKQVYLPVLHPFAKGHLLFLHYHTHTPMNKNRYGIAEPKLDQRLICPVRELDIIGTPLVAFDQSGQRLGMGGGYYDRTLAPWFKTQQGAMPIGLAHDCQQVEQLPTASWDIPLRKIVTPSKVWQWLEHHHHHH	not soluble
MGSSHHHHHHSSGRENLYFQGMIYQPDENRYHTMEYRRCGRSGVKLPAISLGLWHNFGDTTRVENSRALLQRAFDLGITHFDLANNYGPPPGSAECNFGRILQEDFLPWRDELIISTKAGYTMWDGPYGDWGSRKYLIASLDQSLKRMGLEYVDIFYHHRPDPETPLKETMKALDHLVRHGKALYVGISNYPADLARQAIDILEDLGTPCLIHQPKYSLFERWVEDGLLALLQEKGVGSIAFSPLAGGQLTDRYLNGIPEDSRAASGSRFLKPEQITADKLEKVRRLNELAARRGQKLSQMALAWVLRNDNVTSVLIGASKPSQIEDAVGMLANRRFSAAECAEIDAILEGRF	soluble
MVGSLNCIVAVSQNMGIGKNGDLPWPPLRNEFRYFSRMTTTSSVEGKQNLVIMGKKTWFSIPEKFRPLKGRINLVLSRELKEPPQGAHFLSRSLDDALKLTEQPELANKVDMVWIVGGSSVYKEAMNHPGHLKLFVTRIMQDFESDTFFPEIDLEKYKLLPEYPGVLSDVQEEKGIKYKFEVYEKND	soluble
MSLKIKVGLIGFGRMGRFYLKEMQKSGRWDVAYICDINPDCRELAKQLSPESKILENEQEMFDDESVQVVGLFALADSRLDRIEKAIKYGKHIISEKPVSDTIDKEWKVVDITEKASCFSTVNLYLRNAWYHQTIKQFIDQGEIGELAILRICHMTPGLAPGEGHEYEGPAFHDCGMHYVDIARWYAGCEYKTWHAQGVNMWSYKDPWWVQCHGTFQNGVVFDITQGFVYGQLSKDQTHNSYVDIIGTKGIARMTHDFKTAVVDLRGVTQTHHIEKPFGGKNIDVLCDLFADSIETGIRNPQLPLIRDSAIASEYAWTFLHDAYTHDLPAIGEGHHHHHH	soluble
MKTIGLLGGMSWESTIPYYRLINEGVKARLGGLHSASLVLHSVDFHDIEACQSAGDWDRAGEILAEAAVGLQQAGAEGIVLCTNTMHKVADAIAARCQVPFLHIADATGRAIAAKGQRRVALLGTRYTMEQTFYRGRLQEQFAIETLIPEADDRAQINQIIFDELCLGTFSEASRDYYLQTIAALAEQGAEGVIFGCTEIGLLVPAELSPLPVFDTAAIHAEDAVNFMLSAGPTPAA	not soluble
MGSDKIHHHHHHMKPQLIASCWTSAGDAAPDRDDLSSPVAIDERIALVAETGWAGIGLVHADLIKARDTIGYEELRRRIHAAGIEIIEVEFLNGWWATGAERQESDAVRADLFAAAQALGSPHIKVGAGEGTNGVVPIAHMASAFTDLAAEAEAHGVKLALEATPFSHLKTIYDALEVVSHSDSPSAGLMVDIWHTAKIGIPNDELWRNIPLSKVNAVEVDDGFIDTPIDLFDDSTNRRAYCGEGEFDPASFIRGAIDAGWTGAYGVEIISAEHRSLPVKEGLQRAFDTTIAAFEQAARLAPSTN	not soluble
MGSDKIHHHHHHMEILLARQPIVDRFGSIDAFELLYRSVETPAVFDGDLATMDVLTNTLIHLGVDRVAEGKRLFINFTGDLLQSELIDHLNPTQFVIEVLETVQIDEMMLQTLQKWKEAGFVLALDDFVTDLLRHHGPELFDLIDLIKIDIEAINPREQSAILHILKRNYPHIRFLAERVETHEDHTRSLAMGYDWFQGYFYAKPMLMKGKAVPPQVPVLLKMLKWLDTDDHYDDVVDEIEGNPYISVQVLQLINSPGIGLRNMVSSVRQAISLLGFSQLKSWISLIVLREMKLASPYQWSDELLRSSLHCAKLCQLFATETKTLKAESAYMIGLLSHIDALLSVDIGEIIDQLPIEPALKNVLQGEDHPFRDCLLLAISADRGEFERFEMLSNRFGIMKHRAYELLKESQVWLSQKELHLQDKTDSIV	not soluble
MSLELTRYEIIKILMEYVTDEIVVCNIGIPSKELFKINDREKNFYMLGSMGLSSSIGHGLALSVNEKVIAIDGDGSVLMNMGSLATIGKTTPKDFLLLIVDNCAYGSTGNQETHSTCTDLYQVSKACGIDSIGVFNEEQLRDAVKLALSESGTKVIVAKARPHNENVPNINLVPTEIKHRFMNAIKKEGHHHHHH	not soluble
MLQCGAKNVNPLERFVSSLPVAAVLPELLAALDGASQVLLSAPTGAGKSTWLPLQLLAHPGINGKIILLEPRRLAARNVAQRLAELLNEKPGDTVGYRMRAQNCVGPNTRLEVITEGVLTRMIQRDPELSGVGLVILDEFHERSLQADLALALLLDVQQGLRDDLKLLIMSA	not soluble
GPGSMTNFSPAKCEMDALFLTSAGTDGHPLAQPFWSSSRSSLPTFDAHRRGTARGRLQNPALIDSIRRSEGSRVGQDTCRYMQAAAASSQKAVHQLLSRLQTYRSFKPFLSPPAPYRDNLFTDDRGFSNFHGPSYGRGSTATVSRDQLWQMVDGILDTSVAQLLQHNAEGHFIMTLQSTLGLEAPISTAKSGTVIESRKAATPAIKGGATELASEERTPAGGPRQPLPPALQKTAVMSSFAPASALADRWALDHPSATAAAIEEQHHAWAKFEQQRQRTSRCFYLQAMQEQLDVLQAEQARDAADTTHSPPSRGDRSHRYLVDMHSPSDSEDAVAKTEEERQQALWHTFHDGPVLGVGASESLHETALGVPGIVSAYLESTDLQDWLHCSWAHRTHRHESAALRIQCAYRVYRARCKVREMRYERRQAFLASLSAERKARQVWDLALQVQKDTTTTTSGTDSTLRALQFFINKVNAVVAKHRARKQYQQRQDAEICRYAATRIQAVYRGHRTRAFVTELRHPEIVALRKHLQQENCAKLIQTCWRRYTAQRQWWRARHAACVLQSMYRCYAARRMLAERRYQRSLEASAELTKFAVQRIERWYASFLAARNAIGRAHVAELLMLQRVCRGYQGRHGVQKERRLSRFRFAVRTIEQRRWRVMEVREAIERRAALSATNAAKRTASMRDDAAVTIQRAWRQRRVLHVC	soluble
MSLFPDKYDSYLYINQDKIREDLKRALKDALRICLFHITHKSPNIRTEKATRICYYRECGYTDEQIIDKILEEEYVGFVDNIESAIKSREARFRNPQNSAKIACFTENVQSKYMWDRYADGYKGFALEYDLRNCVFKYNKLGMNVNLFPVIYTDLRPDVTLDEGNIHTYEYFKQIGDKNWLNYLNSIISVNQLYWYKAYLYKDQKEYEHEHEWRMLYYNFENEEDYASIPDTGCLKAIYYGPDIAKKDKEKLHRIAVKKGLKEYDVNLDAESRKYDLKVTMFQEGHHHHHH	not soluble
MGSSHHHHHHSSGLVPRGSHMTVEQTPENPGTAARAAAEETVNDILQGAWKARAIHVAVELGVPELLQEGPRTATALAEATGAHEQTLRRLLRLLATVGVFDDLGHDDLFAQNALSAVLLPDPASPVATDARFQAAPWHWRAWEQLTHSVRTGEASFDVANGTSFWQLTHEDPKARELFNRAMGSVSLTEAGQVAAAYDFSGAATAVDIGGGRGSLMAAVLDAFPGLRGTLLERPPVAEEARELLTGRGLADRCEILPGDFFETIPDGADVYLIKHVLHDWDDDDVVRILRRIATAMKPDSRLLVIDNLIDERPAASTLFVDLLLLVLVGGAERSESEFAALLEKSGLRVERSLPCGAGPVRIVEIRRA	soluble
MRVLITGGNRGLGLQLVKVFHENGHIIYPLVRTEVAVTQLKQMFSCRCFPILADLAADESTEQIKKQLEEYTEYMDLVINNAGITGKETEVLHTNSEELTDLFNIHCLGVIRAVKGTYMALAKSDHPRIINVSSRLGSLHKMANKEFPQGHFSYSYRIAKAAQNMLTLCLQQEFENKGISVTAIHPGKLKTEIGAFDANMTPAEGTKNIYDWVIDSNEDLSGQFIEPGVGEIKW	not soluble
MIRKDDILKMTEKGISVFRYYLPVDFKVGKNFLNPFYKDTKASCNIYYERKAGVFKMKDFGNEDYSGDCFELVGRLNGLSCKEPKEFVEIMEMINRDLHLGLSAHEEYHVSHSKVPQKSEVVSEEPKAKSVRPYTVVQKPFTAAELAFWGKSGIGENVLKAYRTVSLKKFSSENQERKPFSCMTSVDEPMFGYMGKQHIKVYRPCSQMRFLYAGDFGDNYCFGLEQLPAKGDLLFITGGEKDVMSLAAHGFHAICFNSETAFIPAAVIHRLSFRFKHIILLYDVDSTGLKSSAKREEELKEYGIKRLLLPLAGTKTEKDVSDYFMLGNSREDLIKLFLDYLETLYSETMSALKSCEVDFNNPPPIAQMIVSVNDVPLGTQGNLLCITGGEGTGKSNYVAALIAGAIRPTGTDVDALGVTLHENSRNKAVLFYDTEQSEVQLYKNISNLLRRCGREAMPEWFKAYCLTGMSRKERLLSIIQSLDKYHYQYGGVHLVVIDGIADLIKCANDEAESIAVVEELYRLAGIYKTCIVTVLHFIPNGLKLRGHLGSELQRKAAAILSIEKDSDPAISVVKALKVRDGSPLDVPIMQFSWDKEKAMHVYLGEKPKEEKDKRKEDELVAVAKEVFSRRRFVTYVELAEEIQSILEVKERTAKSYIRFMREKEIILKSSDNQSYYVVGNF	not soluble
DLLSWFKGNDRPPAPAGKALEFSKPAAWQNNLPLTPADKVSGYNNFYEFGLDKADPAANAGSLKTDPWTLKISGEVAKPLTLDHDDLTRRFPLEERIYRMRCVEAWSMVVPWIGFPLHKLLALAEPTSNAKYVAFETIYAPEQMPGQQDRFIGGGLKYPYVEGLRLDEAMHPLTLMTVGVYGKALPPQNGAPVRLIVPWKYGFKGIKSIVSIKLTRERPPTTWNLAAPDEYGFYANVNPYVDHPRWSQATERFIGSGGILDVQRQPTLLFNGYADQVASLYRGLDLRENFLEHHHHHH	soluble
MLIFGVIMVTIIVLFHPILTNQRDTIVTSTFKEIASDACYYINLGVKVEDYEHEPLNNLVGNVKCNFLGISVDSTTGEIRVTLKFEVNGNAQDFASGIIEYIKRRITEIRGFTITDKGEIFYRDSKITIEILTLEHHHHHH	not soluble
MRPLKISRDELLQRCAGTFRRYGYHGTTMEMLSSACGLTKASFYHHYPNKEALLRDVLEWTHQRLAETLFSIAYDPLLTPRERLEKLGRKAARLFQDDSIGCLMGVVAVDASYGRSELMAPIRSFLDDWAQAFAQLYRPAFDEAQALERGRQLVADFEGAILLARIYGEPGYIDGVTRRALEQLAG	not soluble
APLAHCDGRGGLKLSQDMDTCEDILPCVPFSVAKSVKSLYLGRMFSGTPVIRLRFKRLQPTRLVAEFDFRTFDPEGILLFAGGHQDSTWIVLALRAGRLELQLRYNGVGRVTSSGPVINHGMWQTISVEELARNLVIKVNRDAVMKIAVAGDLFQPERGLYHLNLTVGGIPFHEKDLVQPINPRLDGCMRSWNWLNGEDTTIQETVKVNTRMQCFSVTERGSFYPGSGFAFYSLDYMRTPLDVGTESTWEVEVVAHIRPAADTGVLFALWAPDLRAVPLSVALVDYHSTKKLKKQLVVLAVEHTALALMEIKVCDGQEHVVTVSLRDGEATLEVDGTRGQSEVSAAQLQERLAVLERHLRSPVLTFAGGLPDVPVTSAPVTAFYRGCMTLEVNRRLLDLDEAAYKHSDITAHSCPPVEPAAA	soluble
